Patent US20220273789A1

molecular target: human IgG (human); assay: BLI Octet, construct on Ni-NTA sensor, hIgG in solution

| Substance | Kd [nM] | Response (nm) | koff [s⁻¹] | kon [M⁻¹ s⁻¹] |
| --- | --- | --- | --- | --- |
| HSV2-gE_R314Y_gI (from UniProt P89475 21-416; P06764 21-256) (receptor) | 600 | 0.385 | 0.00441 | 7350 |
| HSV2-gE_R320A_gI (from UniProt P89475 21-416; P06764 21-256) (receptor) | 1500 | 0.295 | 0.00505 | 3360 |
| HSV2-gE_R320G_gI (from UniProt P89475 21-416; P06764 21-256) (receptor) | 1180 | 0.322 | 0.00462 | 3920 |
| HSV2-gE_R320H_gI (from UniProt P89475 21-416; P06764 21-256) (receptor) | 4750 | 0.247 | 0.00421 | 886 |
| HSV2-gE_R320I_gI (from UniProt P89475 21-416; P06764 21-256) (receptor) | 406 | 0.622 | 0.00438 | 10800 |
| HSV2-gE_R320L_gI (from UniProt P89475 21-416; P06764 21-256) (receptor) | 291 | 0.785 | 0.00389 | 13400 |
| HSV2-gE_R320M_gI (from UniProt P89475 21-416; P06764 21-256) (receptor) | 336 | 0.722 | 0.00462 | 13700 |
| HSV2-gE_R320N_gI (from UniProt P89475 21-416; P06764 21-256) (receptor) | 828 | 0.379 | 0.00493 | 5950 |
| HSV2-gE_R320P_gI (from UniProt P89475 21-416; P06764 21-256) (receptor) | 1650 | 0.267 | 0.00235 | 1420 |
| HSV2-gE_R320Q_gI (from UniProt P89475 21-416; P06764 21-256) (receptor) | 902 | 0.351 | 0.00539 | 5980 |
| HSV2-gE_R320S_gI (from UniProt P89475 21-416; P06764 21-256) (receptor) | 1050 | 0.343 | 0.00547 | 5190 |
| HSV2-gE_R320T_gI (from UniProt P89475 21-416; P06764 21-256) (receptor) | 606 | 0.37 | 0.0042 | 6940 |
| HSV2-gE_R320V_gI (from UniProt P89475 21-416; P06764 21-256) (receptor) | 469 | 0.52 | 0.00425 | 9060 |
| HSV2-gE_S338E_gI (from UniProt P89475 21-416; P06764 21-256) (receptor) | 348 | 0.616 | 0.0043 | 12300 |
| HSV2-gE_S338G_gI (from UniProt P89475 21-416; P06764 21-256) (receptor) | 339 | 0.562 | 0.00438 | 12900 |
| HSV2-gE_S338L_gI (from UniProt P89475 21-416; P06764 21-256) (receptor) | 439 | 0.467 | 0.00223 | 5080 |
| HSV2-gE_S338T_gI (from UniProt P89475 21-416; P06764 21-256) (receptor) | 186 | 0.785 | 0.00254 | 13600 |
| HSV2-gE_V340A_gI (from UniProt P89475 21-416; P06764 21-256) (receptor) | 474 | 0.356 | 0.00422 | 8910 |
| HSV2-gE_V340M_gI (from UniProt P89475 21-416; P06764 21-256) (receptor) | 278 | 0.621 | 0.00399 | 14300 |
| HSV2-gE_V340P_gI (from UniProt P89475 21-416; P06764 21-256) (receptor) | 321 | 0.566 | 0.00465 | 14500 |
| HSV2-gE_V340Q_gI (from UniProt P89475 21-416; P06764 21-256) (receptor) | 239 | 0.32 | 0.00218 | 9090 |
| HSV2-gE_V340R_gI (from UniProt P89475 21-416; P06764 21-256) (receptor) | < 0.001 | 0.201 | < 1e-07 | 6650 |

molecular target: human IgG (human); assay: BLI (Octet), gEgI on Ni-NTA sensor, hIgG in solution

| Substance | Kd [nM] | Response [nm] | koff [s⁻¹] | kon [M⁻¹ s⁻¹] |
| --- | --- | --- | --- | --- |
| HSV2-gE_H245S P319G_gI (from UniProt P89475 21-416; P06764 21-256) (receptor) | 363 | 0.313 | 0.0027 | 7440 |
| HSV2-gE_H245S P319L_gI (from UniProt P89475 21-416; P06764 21-256) (receptor) | 292 | 0.323 | 0.0019 | 6520 |
| HSV2-gE_P317F S338G_gI (from UniProt P89475 21-416; P06764 21-256) (receptor) | 399 | 0.153 | 0.00248 | 6220 |
| HSV2-gE_P317F S338H_gI (from UniProt P89475 21-416; P06764 21-256) (receptor) | 339 | 0.182 | 0.00167 | 4910 |
| HSV2-gE_P317F S338L_gI (from UniProt P89475 21-416; P06764 21-256) (receptor) | 225 | 0.442 | 0.00165 | 7370 |
| HSV2-gE_P317F V340M_gI (from UniProt P89475 21-416; P06764 21-256) (receptor) | 291 | 0.259 | 0.00189 | 6510 |
| HSV2-gE_P317F V340R_gI (from UniProt P89475 21-416; P06764 21-256) (receptor) | 372 | 0.301 | 0.00218 | 5880 |
| HSV2-gE_P317F V340W_gI (from UniProt P89475 21-416; P06764 21-256) (receptor) | 577 | 0.116 | 0.00414 | 7170 |
| HSV2-gE_P317K S338G_gI (from UniProt P89475 21-416; P06764 21-256) (receptor) | 238 | 0.198 | 0.00167 | 7030 |
| HSV2-gE_P317K S338H_gI (from UniProt P89475 21-416; P06764 21-256) (receptor) | 338 | 0.146 | 0.00195 | 5780 |
| HSV2-gE_P317K S338L_gI (from UniProt P89475 21-416; P06764 21-256) (receptor) | 252 | 0.334 | 0.0016 | 6350 |
| HSV2-gE_P317K V340M_gI (from UniProt P89475 21-416; P06764 21-256) (receptor) | 297 | 0.238 | 0.00199 | 6690 |
| HSV2-gE_P317K V340R_gI (from UniProt P89475 21-416; P06764 21-256) (receptor) | 241 | 0.508 | 0.00163 | 6740 |
| HSV2-gE_P317K V340W_gI (from UniProt P89475 21-416; P06764 21-256) (receptor) | 517 | 0.111 | 0.00348 | 6740 |
| HSV2-gE_P317S S338G_gI (from UniProt P89475 21-416; P06764 21-256) (receptor) | 302 | 0.595 | 0.00453 | 15000 |
| HSV2-gE_P317S S338H_gI (from UniProt P89475 21-416; P06764 21-256) (receptor) | 154 | 0.516 | 0.0021 | 13600 |
| HSV2-gE_P317S S338L_gI (from UniProt P89475 21-416; P06764 21-256) (receptor) | 167 | 0.549 | 0.00163 | 9770 |
| HSV2-gE_P317S V340M_gI (from UniProt P89475 21-416; P06764 21-256) (receptor) | 269 | 0.623 | 0.0039 | 14500 |
| HSV2-gE_P317S V340R_gI (from UniProt P89475 21-416; P06764 21-256) (receptor) | 277 | 0.403 | 0.00191 | 6890 |
| HSV2-gE_P317S V340W_gI (from UniProt P89475 21-416; P06764 21-256) (receptor) | 351 | 0.131 | 0.00282 | 8050 |
| HSV2-gE_P318D S338G_gI (from UniProt P89475 21-416; P06764 21-256) (receptor) | 330 | 0.143 | 0.00256 | 7750 |
| HSV2-gE_P318D S338H_gI (from UniProt P89475 21-416; P06764 21-256) (receptor) | 280 | 0.18 | 0.00215 | 7690 |
| HSV2-gE_P318D S338L_gI (from UniProt P89475 21-416; P06764 21-256) (receptor) | 163 | 0.303 | 0.00107 | 6560 |
| HSV2-gE_P318I S338G_gI (from UniProt P89475 21-416; P06764 21-256) (receptor) | 335 | 0.237 | 0.00297 | 8870 |
| HSV2-gE_P318I S338H_gI (from UniProt P89475 21-416; P06764 21-256) (receptor) | 286 | 0.252 | 0.0025 | 8740 |
| HSV2-gE_P318I S338L_gI (from UniProt P89475 21-416; P06764 21-256) (receptor) | 152 | 0.411 | 0.00124 | 8130 |
